Patent publication US20150344570A1 (published 2015)

Key:
FcγRIIIa [1] = target: T1, FcγRIIIa (human, UniProt P08637 17-208); experiment: ratio of SPR KDs: KD of GpH7-TA22/GpH7-B78/GpL16-k0 divided by KD of this antibody
T1 construct: extracellular domain; also called FcgRIIIa; CD16A; not shown: His tag attached to the C terminus
Text: Then, GpH7-TA54 (SEQ ID NO: 46) resulting from the introduction of Y296W into GpH7-TA22 was constructed, and expressed and prepared in combination with GpH7-B78 according to the method described in Reference Example 1. Furthermore, GpH7-TA58 (SEQ ID NO: 45) resulting from the introduction of Y296W into GpH7-B78 was constructed, and expressed and prepared in combination with GpH7-TA22 according to the method described in Reference Example 1. To assess the effect of combination with Y296W, the prepared antibodies were compared for the FcγRIIIa-binding activity according to the method described in Reference Example 2 (Table 17).
(§1) Analysis of interaction between objective antibody and the FcγR was carried out using Biacore T100 (GE Healthcare). HBS-EP+ (GE Healthcare) was used as the running buffer, and the measurement temperature was set to 25° C. Chips produced by immobilizing the antigen peptide by the amine coupling method to a Series S Sencor Chip CM5 (GE Healthcare), or alternatively, chips produced by allowing preliminarily biotinylated antigen peptides to interact with and immobilize onto a Series S Sensor Chip SA (certified) (GE Healthcare) were used. Antibodies of interest were captured onto an antigen peptide-immobilized chip, and allowed to interact to each FcγR diluted with running buffer. To regenerate and repeatedly use the chip, the antibodies captured on the chip were washed off by reacting 10 mM glycine-HCl, pH 1.5.
T1 sequence (P08637 17-208): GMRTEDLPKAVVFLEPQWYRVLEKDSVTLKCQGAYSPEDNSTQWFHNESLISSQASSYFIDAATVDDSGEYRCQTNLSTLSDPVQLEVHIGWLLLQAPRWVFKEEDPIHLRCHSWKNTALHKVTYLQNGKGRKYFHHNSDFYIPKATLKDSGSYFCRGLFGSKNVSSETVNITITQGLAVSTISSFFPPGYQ

FcγRIIIa [2] = target: T1, FcγRIIIa; experiment: ratio of SPR KDs: KD of GpH7-TA7/GpH7-B78/GpL16-k0 divided by KD of this antibody
Protocol: as §1
Specifically, to calculate association rate constant ka (L/mol/s) and dissociation rate constant kd (1/s), sensorgrams obtained by measurement were processed for global fitting by Biacore Evaluation Software using 1:1 Langmuir binding model and dissociation constant KD (mol/1) was calculated from the resulting values.

FcγRIa = FcγRIa (human, UniProt P12314 16-292); experiment: SPR (Biacore), relative binding
FcγRIIIa [3] = target: T2, FcγRIIIa (human, UniProt P08637 17-208); experiment: SPR (Biacore); KD of GpH7-TA7/GpH7-B78/GpL16-k0 for FcγRIIIa divided by the KD of this antibody
T2 construct: extracellular domain; Soluble extracellular domain with a C-terminal His tag, expressed in FreeStyle293 cells and used as the analyte in Biacore; also called FcgRIIIa; CD16A; not shown: His tag attached to the C terminus
Protocol: Then, K334G was also assessed in the same manner. GpH7-TA40 (SEQ ID NO: 47) resulting from the introduction of K334G into GpH7-TA7 was constructed, and expressed and prepared in combination with GpH7-B78 according to the method described in Reference Example 1. Furthermore, GpH7-TA50 (SEQ ID NO: 48) resulting from the introduction of K334G into GpH7-B78 was constructed, and expressed and prepared in combination with GpH7-TA7 according to the method described in Reference Example 1. To assess the effect of combinations with K334G, the prepared antibodies were compared for the FcγRIIIa binding according to the method described in Reference Example 2 (Table 18).
as §1, with “To regenerate and repeatedly use the chip, the antibodies captured on the chip were washed off by reacting 10 mM glycine-HCl, pH 1.5.” left out
T2 sequence (P08637 17-208): as above

FcγRIa, sequence (P12314 16-292): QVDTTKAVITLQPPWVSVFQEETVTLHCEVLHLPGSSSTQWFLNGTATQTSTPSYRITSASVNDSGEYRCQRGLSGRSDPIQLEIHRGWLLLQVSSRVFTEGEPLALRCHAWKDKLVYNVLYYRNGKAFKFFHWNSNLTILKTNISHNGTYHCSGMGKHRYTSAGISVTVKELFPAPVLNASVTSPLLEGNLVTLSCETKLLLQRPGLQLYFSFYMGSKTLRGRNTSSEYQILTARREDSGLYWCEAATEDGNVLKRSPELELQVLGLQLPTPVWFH

| Binder | FcγRIa-binding activity relative to GpH7-A5/GpH7-B3/GpL16-k0 (FcγRIa) | KD ratio (FcγRIIIa [3]) | also measured |
| --- | --- | --- | --- |
| GpH7-TA22/GpH7-B78/GpL16-k0 (antibody, human IgG1, kappa, Anti-glypican-3 IgG1 heterodimer; L234Y/G236W/S239D/S298A in H1, S239D/A330L/I332E in H2) heavy 1: QVQLVQSGAEVKKPGASVTVSCKASGYTFTDYEMHWIRQPPGEGLEWIGAIDPKTGDTAYSESFQDRVTLTADKSTSTAYMELSSLTSEDTAVYYCTRFYSYTYWGQGTLVTVSSASTKGPSVFPLAPSSKSTSGGTAALGCLVKDYFPEPVTVSWNSGALTSGVHTFPAVLQSSGLYSLSSVVTVPSSSLGTQTYICNVNHKPSNTKVDKKVEPKSCDKTHTCPPCPAPEYLWGPDVFLFPPKPKDTLMISRTPEVTCVVVDVSHEDPEVKFNWYVDGVEVHNAKTKPREEQYNATYRVVSVLTVLHQDWLNGKEYKCKVSNKALPAPIEKTISKAKGQPREPQVYTLPPSRKELTKNQVSLTCLVKGFYPSDIAVEWESNGQPENNYKTTPPVLDSDGSFFLYSKLTVDKSRWQQGNVFSCSVMHEALHNRYTQKSLSLSP heavy 2: QVQLVQSGAEVKKPGASVTVSCKASGYTFTDYEMHWIRQPPGEGLEWIGAIDPKTGDTAYSESFQDRVTLTADKSTSTAYMELSSLTSEDTAVYYCTRFYSYTYWGQGTLVTVSSASTKGPSVFPLAPSSKSTSGGTAALGCLVKDYFPEPVTVSWNSGALTSGVHTFPAVLQSSGLYSLSSVVTVPSSSLGTQTYICNVNHKPSNTKVDKKVEPKSCDKTHTCPPCPAPELLGGPDVFLFPPKPKDTLMISRTPEVTCVVVDVSHEDPEVKFNWYVDGVEVHNAKTKPREEQYNSTYRVVSVLTVLHQDWLNGKEYKCKVSNKALPLPEEKTISKAKGQPREPQVYTLPPSRDELTKNQVSLTCLVKGFYPSDIAVEWESNGQPENNYKTTPPVLDSDGSFFLYSKLTVDKSRWQQGNVFSCSVMHEALHNHYTQESLSLSP light: DIVMTQSPLSLPVTPGEPASISCQASESLVHSNRNTYLHWYLQKPGQSPQLLIYKVSNRFSGVPDRFSGSGSGTDFTLKISRVEAEDVGVYYCSQNTHVPPTFGQGTKVEIERTVAAPSVFIFPPSDEQLKSGTASVVCLLNNFYPREAKVQWKVDNALQSGNSQESVTEQDSKDSTYSLSSTLTLSKADYEKHKVYACEVTHQGLSSPVTKSFNRGEC | – | – | KD ratio (FcγRIIIa [1]): 1 fold; KD ratio (FcγRIIIa [2]): 3.2 fold |
| GpH7-B15/GpL16-k0 (antibody, human IgG1, kappa, P329E in both H chains) heavy: not shown light: DIVMTQSPLSLPVTPGEPASISCQASESLVHSNRNTYLHWYLQKPGQSPQLLIYKVSNRFSGVPDRFSGSGSGTDFTLKISRVEAEDVGVYYCSQNTHVPPTFGQGTKVEIERTVAAPSVFIFPPSDEQLKSGTASVVCLLNNFYPREAKVQWKVDNALQSGNSQESVTEQDSKDSTYSLSSTLTLSKADYEKHKVYACEVTHQGLSSPVTKSFNRGEC | ≤ 0.2 fold | – | – |
| GpH7-B14/GpL16-k0 (antibody, human IgG1, kappa, P329D in both H chains) heavy: not shown light: DIVMTQSPLSLPVTPGEPASISCQASESLVHSNRNTYLHWYLQKPGQSPQLLIYKVSNRFSGVPDRFSGSGSGTDFTLKISRVEAEDVGVYYCSQNTHVPPTFGQGTKVEIERTVAAPSVFIFPPSDEQLKSGTASVVCLLNNFYPREAKVQWKVDNALQSGNSQESVTEQDSKDSTYSLSSTLTLSKADYEKHKVYACEVTHQGLSSPVTKSFNRGEC | ≤ 0.2 fold | – | – |
| GpH7-TA7/GpH7-TA50/GpL16-k0 (antibody, human IgG1, kappa, Heterodimerized anti-glypican-3 IgG1 antibody; K334G is in the H chain other than the one with L234Y/G236W/S298A; also called TA7/TA50) heavy 1: QVQLVQSGAEVKKPGASVTVSCKASGYTFTDYEMHWIRQPPGEGLEWIGAIDPKTGDTAYSESFQDRVTLTADKSTSTAYMELSSLTSEDTAVYYCTRFYSYTYWGQGTLVTVSSASTKGPSVFPLAPSSKSTSGGTAALGCLVKDYFPEPVTVSWNSGALTSGVHTFPAVLQSSGLYSLSSVVTVPSSSLGTQTYICNVNHKPSNTKVDKKVEPKSCDKTHTCPPCPAPEYLWGPSVFLFPPKPKDTLMISRTPEVTCVVVDVSHEDPEVKFNWYVDGVEVHNAKTKPREEQYNATYRVVSVLTVLHQDWLNGKEYKCKVSNKALPAPIEKTISKAKGQPREPQVYTLPPSRKELTKNQVSLTCLVKGFYPSDIAVEWESNGQPENNYKTTPPVLDSDGSFFLYSKLTVDKSRWQQGNVFSCSVMHEALHNRYTQKSLSLSP heavy 2: QVQLVQSGAEVKKPGASVTVSCKASGYTFTDYEMHWIRQPPGEGLEWIGAIDPKTGDTAYSESFQDRVTLTADKSTSTAYMELSSLTSEDTAVYYCTRFYSYTYWGQGTLVTVSSASTKGPSVFPLAPSSKSTSGGTAALGCLVKDYFPEPVTVSWNSGALTSGVHTFPAVLQSSGLYSLSSVVTVPSSSLGTQTYICNVNHKPSNTKVDKKVEPKSCDKTHTCPPCPAPELLGGPDVFLFPPKPKDTLMISRTPEVTCVVVDVSHEDPEVKFNWYVDGVEVHNAKTKPREEQYNSTYRVVSVLTVLHQDWLNGKEYKCKVSNKALPLPEEGTISKAKGQPREPQVYTLPPSRDELTKNQVSLTCLVKGFYPSDIAVEWESNGQPENNYKTTPPVLDSDGSFFLYSKLTVDKSRWQQGNVFSCSVMHEALHNHYTQESLSLSP light: DIVMTQSPLSLPVTPGEPASISCQASESLVHSNRNTYLHWYLQKPGQSPQLLIYKVSNRFSGVPDRFSGSGSGTDFTLKISRVEAEDVGVYYCSQNTHVPPTFGQGTKVEIERTVAAPSVFIFPPSDEQLKSGTASVVCLLNNFYPREAKVQWKVDNALQSGNSQESVTEQDSKDSTYSLSSTLTLSKADYEKHKVYACEVTHQGLSSPVTKSFNRGEC | – | 1.2 | – |
| GpH7-TA40/GpH7-B78/GpL16-k0 (antibody, human IgG1, kappa, Heterodimerized anti-glypican-3 IgG1 antibody; K334G is in the same H chain as L234Y/G236W/S298A; also called TA40/B78) heavy 1: QVQLVQSGAEVKKPGASVTVSCKASGYTFTDYEMHWIRQPPGEGLEWIGAIDPKTGDTAYSESFQDRVTLTADKSTSTAYMELSSLTSEDTAVYYCTRFYSYTYWGQGTLVTVSSASTKGPSVFPLAPSSKSTSGGTAALGCLVKDYFPEPVTVSWNSGALTSGVHTFPAVLQSSGLYSLSSVVTVPSSSLGTQTYICNVNHKPSNTKVDKKVEPKSCDKTHTCPPCPAPEYLWGPSVFLFPPKPKDTLMISRTPEVTCVVVDVSHEDPEVKFNWYVDGVEVHNAKTKPREEQYNATYRVVSVLTVLHQDWLNGKEYKCKVSNKALPAPIEGTISKAKGQPREPQVYTLPPSRKELTKNQVSLTCLVKGFYPSDIAVEWESNGQPENNYKTTPPVLDSDGSFFLYSKLTVDKSRWQQGNVFSCSVMHEALHNRYTQKSLSLSP heavy 2: QVQLVQSGAEVKKPGASVTVSCKASGYTFTDYEMHWIRQPPGEGLEWIGAIDPKTGDTAYSESFQDRVTLTADKSTSTAYMELSSLTSEDTAVYYCTRFYSYTYWGQGTLVTVSSASTKGPSVFPLAPSSKSTSGGTAALGCLVKDYFPEPVTVSWNSGALTSGVHTFPAVLQSSGLYSLSSVVTVPSSSLGTQTYICNVNHKPSNTKVDKKVEPKSCDKTHTCPPCPAPELLGGPDVFLFPPKPKDTLMISRTPEVTCVVVDVSHEDPEVKFNWYVDGVEVHNAKTKPREEQYNSTYRVVSVLTVLHQDWLNGKEYKCKVSNKALPLPEEKTISKAKGQPREPQVYTLPPSRDELTKNQVSLTCLVKGFYPSDIAVEWESNGQPENNYKTTPPVLDSDGSFFLYSKLTVDKSRWQQGNVFSCSVMHEALHNHYTQESLSLSP light: DIVMTQSPLSLPVTPGEPASISCQASESLVHSNRNTYLHWYLQKPGQSPQLLIYKVSNRFSGVPDRFSGSGSGTDFTLKISRVEAEDVGVYYCSQNTHVPPTFGQGTKVEIERTVAAPSVFIFPPSDEQLKSGTASVVCLLNNFYPREAKVQWKVDNALQSGNSQESVTEQDSKDSTYSLSSTLTLSKADYEKHKVYACEVTHQGLSSPVTKSFNRGEC | – | 0.5 | – |
